Target: T1, recombinant GST-Gαi3 (Rattus norvegicus, UniProt P08753)
T1 construct: A fusion protein was constructed consisting of full-length Gαi3 and gluthatione S-transferase (GST); made in house; host or cells: Escherichia coli BL21
Test: SPOT peptide dot blot overlay with recombinant GST-Gαi3
Format: binding
Conditions: spotted 25 mers overlaid with GST-Gαi3 10 μg/ml
From the text: FIG. 4 Dot blot analysis of conserved amino acids (core element of SEQ ID No. 1, 2, extended sequences SEQ ID No. 4 and 5) in the Reggai sequence. Spotted peptides containing the Reggai sequence (25 mers) of RIIβ (Reg) (SEQ ID No. 7), its mutant functional variant (SEQ ID No. 8) and non-functional peptides not containing the Reggai core element of SEQ ID No. 1 variant (SEQ ID No. 9 to 15) (exchanged amino acids are underlined) were overlaid with recombinant GST-Gαi3. The box indicates the Reggai sequence. Densitometric analysis of the average of two independent dot blot experiments is shown as bar graph. […] SEQ ID No. 9 to 15 in FIG. 4 (2nd to 7th and 9th sequence) are non-inventive comparative peptides.
Overlapping peptides either of the wild type PKA regulatory subunit RIIβ (accession number: NP_002727) or peptides containing substitutions of conserved amino acids in the Reggai sequence were SPOT-synthesized (Synthetic peptide arrays on membrane supports) on distinct coordinates of a cellulose membrane (shown in FIG. 1c; starting from the N-terminus of RegIIβ with amino acid 1-25 [coordinate A1], amino acid 6-30 [coordinate A2], etc.). […] Interactions were detected with rabbit anti-GST and secondary horseradish peroxidase antibodies by a procedure identical to immunoblotting (IB), (see Stefan et al., J. Am. Soc. Nephrol. 18, 199-212 (2007)). […]

T1 sequence (P08753 whole entry, the tested form may be a part): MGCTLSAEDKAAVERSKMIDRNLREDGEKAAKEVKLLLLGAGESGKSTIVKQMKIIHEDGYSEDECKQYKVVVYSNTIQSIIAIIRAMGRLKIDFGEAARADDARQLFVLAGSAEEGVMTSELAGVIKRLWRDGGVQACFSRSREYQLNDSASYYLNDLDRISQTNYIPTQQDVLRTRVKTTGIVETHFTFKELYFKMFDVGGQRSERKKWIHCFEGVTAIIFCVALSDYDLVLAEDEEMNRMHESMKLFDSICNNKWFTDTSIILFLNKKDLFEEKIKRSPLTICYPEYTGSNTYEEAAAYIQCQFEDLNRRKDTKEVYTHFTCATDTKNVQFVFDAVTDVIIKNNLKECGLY

binding of spotted peptide to recombinant GST-Gαi3 (dot blot): functional
Sequence: QGASADSFFIVESGE (listed as Homo sapiens) [SEQ ID No. 8]
